The target of one assay is GFP-TRB1 (Arabidopsis) (UniProt Q8VWK4). Nature of the assay: FRET or BRET; FRET-FLIM (TCSPC); GFP fusion as donor, RFP fusion as acceptor, co-expressed in plant cells; donor alone as control; 10 images a series.
For another assay, the target named is GFP-TRB2 (Arabidopsis) (UniProt Q9FJW5). The description is as above.
UniProt Q9FJW5, sequence (Q9FJW5 whole entry): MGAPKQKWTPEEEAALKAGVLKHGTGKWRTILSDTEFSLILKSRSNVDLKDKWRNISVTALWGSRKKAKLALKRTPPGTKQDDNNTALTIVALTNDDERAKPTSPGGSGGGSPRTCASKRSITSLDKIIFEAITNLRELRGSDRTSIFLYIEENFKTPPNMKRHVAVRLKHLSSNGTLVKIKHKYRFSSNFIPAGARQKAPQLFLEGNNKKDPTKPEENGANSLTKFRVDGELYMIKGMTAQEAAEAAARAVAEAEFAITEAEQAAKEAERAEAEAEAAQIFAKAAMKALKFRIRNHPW

UniProt Q8VWK4, sequence (Q8VWK4 whole entry, the tested form may be a part): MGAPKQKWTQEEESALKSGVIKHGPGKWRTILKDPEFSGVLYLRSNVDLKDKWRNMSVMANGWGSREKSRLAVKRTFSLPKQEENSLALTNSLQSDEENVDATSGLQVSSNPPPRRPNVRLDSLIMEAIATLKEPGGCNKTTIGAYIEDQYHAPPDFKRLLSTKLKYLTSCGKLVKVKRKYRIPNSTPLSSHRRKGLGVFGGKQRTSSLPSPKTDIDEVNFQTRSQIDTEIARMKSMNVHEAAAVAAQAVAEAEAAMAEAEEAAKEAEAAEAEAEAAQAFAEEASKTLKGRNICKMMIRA

B1: RFP-VAP27-1 (natural protein)
chain: MSNIDLIGMSNRDLIGMSNSELLTVEPLDLQFPFELKKQISCSLYLTNKTDNNVAFKVKTTNPKKYCVRPNTGVVLPRSTCEVLVTMQAQKEAPSDMQCKDKFLLQGVIASPGVTAKEVTPEMFSKEAGHRVEETKLRVTYVAPPRPPSPVHEGSEEGSSPRASVSDNGHGSEFSFERFIVDNKAGHQENTSEARALITKLTEEKQSAIQLNNRLQRELDQLRRESKKSQSGGIPFMYVLLVGLIGLILGYIMKRT
B1: the values for the fluorescence lifetime of the GFP donor in the presence of the RFP acceptor with GFP-TRB1 (Arabidopsis) and with GFP-TRB2 (Arabidopsis) were 2.31 ns and 2.21 ns, respectively.

B2: RFP-ATG8e (natural protein)
chain: MNKGSIFKMDNDFEKRKAEAGRIREKYPDRIPVIVEKAEKSEVPNIDKKKYLVPSDLTVGQFVYVIRKRIKLSAEKAIFIFVDNVLPPTGELMSSVYEDKKDEDGFLYITYSGENTFG
As to B2, in the assay with GFP-TRB1 (Arabidopsis), the fluorescence lifetime of the GFP donor in the presence of the RFP acceptor was 2.3 ns.

For the origin of these results see publication PMC9513094.
